From the nanobody polyreactivity screen of Harvey et al. (2022)

Test: yeast display, Sf9 membrane polyspecificity reagent, FACS + sequencing; frameworks hold sequencing errors
In short: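 Galactose-induced (36–48 hours) yeast carrying a synthetic nanobody display library were exposed to 10% biotinylated, detergent-solubilized Sf9 membrane reagent at 4 °C for 1 hour. FACS followed streptavidin microbead enrichment, using low and high (top ~1%) gates for expression (anti-HA) and reagent binding (streptavidin). Colony PCR, MiSeq 2 × 250 sequencing and CDR-length filtering followed. Labels for polyreactivity reflect the gate of origin.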

Sequence: QVQLVDSGGGLVQAGGSLRLSCAASGFIFSDYAMGWYRQAPGKEREFVAAISSGGSTYYADSVKGRFTISRDNAKNTVYLQMNSLKPEDTAVYYCNALWYREMDYWGQGTQVTVSS
- polyreactivity (PSR sort gate): high polyreactivity

Sequence: QVQLVESGGGLDQAGGSLRLSCAASGSTFDWYTMGWNRQAPGKERELVAAISSGGRTYYADSVKGRFTISRDNAKNTVYLQMNSLKPEDTAVYYCAVAWRVGITKYGYWGQGTQVTVSS
- polyreactivity (PSR sort gate): high polyreactivity

Sequence: QVQLVESGGGLVQAGGSLRLSCAASGRIFRGNAMGWYRQVPGKERELVAAISSGTRTTYADSVKGRFTISRDNAKNTVYLQMNSLKPEDTAVYYCAARTSNYPRWRVGGYSYDYWGQGTQVTVSS
- polyreactivity (PSR sort gate): high polyreactivity

Sequence: QDQLVESGGGLVQAGGSHRLSCAASGRTFYLYAMGWYRHAPGKERELVAGISYRGSRTYYADSVKVRFTISRDYEKNTVYLQMNSLKPEDTAVYYCATPAGQAAYDYWGQGTQVTVSS
- polyreactivity (PSR sort gate): high polyreactivity

Sequence: QVQLVESGGGLVQAGGSLRLSCAASGRTFVTNAMGWSRQAPGKERELVAAISSGDRTYYADSVKGRFTISRDNAKNTVYLQMNSLKPEDTAVYYCAKVSRRGIVGYWGQGTQVTVSS
- polyreactivity (PSR sort gate): high polyreactivity

Sequence: QVQLVESGGGLVQAAGSLRLSCAASGSISGYYAMGWYRQAPGKERELVASIRYTGARTYYADSVKGRFTISRDNAKNTVYLQMNSLKPEDTAVYYCAADVKRDRVWGGDYWGQGTQVTVSS
- polyreactivity (PSR sort gate): low polyreactivity

Sequence: QVQLVESGGGLVQAGGSLRLCCAASGSIFKYNAMGWYRQAPGKERELVAAITWSGGSTYYADSVKGRFTISRDNAKNTVYLQMNSLKPEDTAVYYCAAVYYYASRTSKQPYYHWGQGTQVSVSS
- polyreactivity (PSR sort gate): high polyreactivity

Sequence: QVLLQESGGLVQAGCSLRMSCAASGSISTALSMGWYRQAPGKERELVATISDGASTNYADSVKGRFTISRVNAKNTVYLQMNSLKPEDTEVYYCAAQSQYRPDHRYWGQGTQVTVSS
- polyreactivity (PSR sort gate): high polyreactivity

Sequence: QVQLVESGGGLVQAGGSLRLSCAASGFTFRSYTMGWYRQAPGKERELVASIRYGGGSTYYADSVKGRFTISRDNAKNTVYLQMNSLKPEDTAVYYCSAESAWTSPYDYWGQGTQVTVSS
- polyreactivity (PSR sort gate): high polyreactivity

Sequence: QVQLVESGGGLVQAGGSLRLSCAASGFIFVRYAMGWYRQAPGKERELVAAISSGGSTKYADSVKGRFTISRDNAKNTVYLQMNSLKPEDTAVYYCAADATPGRGVDYWGQGTQVTVSS
- polyreactivity (PSR sort gate): high polyreactivity

Sequence: QVQLVESGGGLVQAGGSLRLSCAASGFIFYKYGMGWYRQAPGKERELVAAINRRGGTTSYADSVKGRFTISRDNAKNTVYLQMNSLKPEDTAVYYCAASAPGGQDDYWGQGTQVTVSS
- polyreactivity (PSR sort gate): high polyreactivity

Sequence: QVQLVESGGGLVQAGGSLRLSCAASGSTFPYYVMGWYRQAPGKERELVAAISGSGTRTYYADSVKGRFTISRDNAKNTVYLQMNSLKPEDTAVYYCAARKYPQGFDYWGQGTQVTVSS
- polyreactivity (PSR sort gate): low polyreactivity

Sequence: QVQLVESGGGLVQAGGSLRLSCAASGRIFRYYAMGWYRQAPGKERELVAVISSRGGSTFYADSVKGRFTISRDNAKNTVYLQMNSLKPEDTAVYYCASRSLYVGYDYWGQGTQVTVSS
- polyreactivity (PSR sort gate): high polyreactivity

Sequence: QVQLVESGGGLVQAGGSLRLSCAASGLIFSWYDMGWYRQAPGKERELVAAITTDGDDTYYADSVKGRFTISRDNAKNTVYLQMNSLKPEDTAVYYCAADSELAIRYPDRDYDSWGQGTQVTVSS
- polyreactivity (PSR sort gate): low polyreactivity

Sequence: QIQLVESGGGLVQAGGSLRLSCAASGRTFYSYAMGWYRQAPGKERELVAAINRGASTYYADSVKGRFTISRDNAKNTVYFQMNSLKPEDTAVYYCNAQYYYIPSSTDYDYWGQGTQVTVSS
- polyreactivity (PSR sort gate): high polyreactivity

Sequence: QVQLVESGGGLVQAGGSLRLSCAASGRTFSYYTMGWYRQATGKERELVARISNRGTNTYYADSVKGRFTISRDNAKITVYLPMNSLKQEDTAVYYCDKFYYTSIVGYDSWGQGTQVTVSS
- polyreactivity (PSR sort gate): low polyreactivity

Sequence: QVQLVESGGGFVQAGGSLRLSCAASGSTFSYYAMGWYRQAPGKERELVAAINWRGTNTYYADSVKGRFTISRDNAKNTVYLQMNSLKPEDTAVYYCNKESYRSSSPYNYWGQGTQVTVSS
- polyreactivity (PSR sort gate): high polyreactivity

Sequence: QVQLVESGGGLVQAGGSLRLSCAASGRIFGGNTMGWYRQAPGKERELVAAITSGGSTTYADSVKGRFTISRDNAKNTVYLHMNSLKPEDSEVYYCAARYVYPHQWTPYIRPYDYWGQGTQVTVSS
- polyreactivity (PSR sort gate): low polyreactivity

Sequence: QVQLVESGGGLVQAGGSLRLSCAASGSTFWPNAMGWYRQAPGKERELVAAITGGGGTNYADSVKGRFTISRDNAKNTVYLQMNSLKPEDTAVYYCAAKKVNSRSHVKYYYWGQGTQVSVSS
- polyreactivity (PSR sort gate): high polyreactivity

Sequence: QVQLVESGGGLVQAGGSLRLSCAASGRIFLRNAMGWYRPAPGKERELVAGISSIGGITYYADSVKGRFTISRDNAKNTVYLQMNILKPEDTAVYYCAKGLYLHTSGHGPYDYWGQGTQVTVSS
- polyreactivity (PSR sort gate): low polyreactivity

Sequence: QVQLVESGGGLVQAGGSLRLSCAASGRIFHVYVMGWYRPAPGKERELVAAITWRGGRTYYADSVKGRFTISRDNAKNTVYLQMNSLKPEDTAVYYCKAVAYWYDYQYDYWGQGTQVTVSS
- polyreactivity (PSR sort gate): high polyreactivity

Sequence: QVQLVESGGGLVQAGGSLRLSCAASGRTFQTNDMGLYRKAPGKERELVAAISRRGGSTYYADSVKGRFTISRDNAKNTVYLQMNSLKPEDTAVYYCAATRLSRYDYWGQGTQVTVSS
- polyreactivity (PSR sort gate): low polyreactivity

Sequence: QVQLVESGGGLVQAGGSLRLSCAASGRTFDVYAMGWYRQAPGKERELVAAITSGGSTYYADSVKGRFTISRDNAKNTVYLQMNSLKPEDTAVYYCATDVDKSLYDYWGQGTQVTVSS
- polyreactivity (PSR sort gate): low polyreactivity

Sequence: QVQLVESGGGLVQAGGSLRLSCAASGFTSRYVMGWYRQAPGKERELVASISRSGGSTYYADSVKGRFTISRDNAKNTVYLQMNSLKPEDTAVYYCAALGLSYSSRYYHWQNEFDYWGQGSQVTVSS
- polyreactivity (PSR sort gate): high polyreactivity

Sequence: QVQLVESGGGLVQAGGSLRLSCAASGSTFQFNTMGWYRQAPGKERELDAAITYSGGSTYYADSVKGRFTISRDNAKNTVYLQMNSQKPEDTAVYYCAADIITYDYPSYDGYIRYPYYYWGQGTQVTVTS
- polyreactivity (PSR sort gate): low polyreactivity

Sequence: QVQLVESGGGLVQAGGSLRLSCAASGSIFNYYDMGWYRQAPGKERELVAAIDLTGGTTYYADSVKGRFTISRDNAKNTVYLQMNSLKPEDTAVYYCAAQYIRSSWWGYDYWGQGTQVTVSS
- polyreactivity (PSR sort gate): low polyreactivity

Sequence: QVQLVESGGGLVQAGGSLRLCCAASGFILLDYAKGWYRQAPGNERELVAAISWSGARTYYADSVKRRFTISRDNAKNTVYLQMNSLKPEDTAVYYCATRYRWTPYDYWGQGTQVTVSS
- polyreactivity (PSR sort gate): low polyreactivity

Sequence: QVQLVESGGGLVQAGCSLRLSCAASGFTFGDNAMGWYRQAPGKDRELDARITGDGSTYYADSVKGRFTISRDNAKNTVYLQTNSLKPEDTAVYYCAADYSPRYTQIEYGYWGQGTQVTVSS
- polyreactivity (PSR sort gate): low polyreactivity

Sequence: QVQHVESGGGLVQAGGSLRLSCAASRLTFTRNAMGWYRQAPGKERELVAAITRSSGSTYYADSVKGRFTISRDNAKNTVYLQMNSLKPEDTAVYYCNARRAAYYHRARELDYWGQGTQVTVSS
- polyreactivity (PSR sort gate): high polyreactivity

Sequence: QVQLVESGGGLVQAGGSLRLSCAASGITFYDNVMGWYRQAPGKERELVAAITSGGSTNYADSVKGRFTISRDNAKNTVYFQMNRLKPEDTAVYYCAAQPRVDYEFPYRYGYWGQGTQVTVSA
- polyreactivity (PSR sort gate): low polyreactivity

Sequence: QVKLVESGGGLVQAGGSLRLSCAASGSIFGSNAMGWYRQAPGKERELVAAITGRGGRTYYADSVKGRFTISRDNAKNTVYLQMNSLKPEDTAVYYCAAIRREVVAGDYWGQGTQVTVSS
- polyreactivity (PSR sort gate): high polyreactivity

Sequence: QVQLVESGGGLVQAGGSLRLSCAASGSTFAYYAMGWYRQAPGKEREFVAAISSRKDSTYADSVKGRFTLSRDNAKNTVYLQMNSLKPEDTAVYYCAKGPYYWSSSRVRYDYWGQGTQVTVSS
- polyreactivity (PSR sort gate): high polyreactivity

Sequence: QDQLVESGGGLVQAGGSLRLSCAAYGNTIIRYAMGWYRQAPGKERELVAAIAYSGGRTYYADSVKGRFTISRDNAKNTVFLQMNSLKPEDTAVYYCNAASRYGGDYWGQGTQVTVSS
- polyreactivity (PSR sort gate): high polyreactivity

Sequence: QVQLVESGGGLVQAGGSLRLSCAASGSIFVDYAMGWYRQAPGKERELVASISGGGSSTYYADSVMGRFTISRDNAKNTVYLQMNSLKPEDTALYYCARDGVRSSSEYDYWGQGTQVTVSS
- polyreactivity (PSR sort gate): low polyreactivity

Sequence: QVQLVESGGGLVQAGGSLRLSCAASGSTFVSNAMGWYRQAPGKERELVAAISTSGGSTYYADSVKGRFTISRDNAKKTVYLQMNSLKTEDTAVYFCAAVSPRRYRYDYWGQGTQVTVSS
- polyreactivity (PSR sort gate): low polyreactivity

Sequence: QVQLVESGGGLVQAGGSLRLSCAASGFIFPLYTMGWYRQAPGKERELVAAISWIGGRTYYADSVKGRFTISRDNAKNTVYLQMNSLKPEDSAVYYCAKDPTGGGYGYDYWGQGTQVTVSS
- polyreactivity (PSR sort gate): low polyreactivity

Sequence: QVQLVESGGGLVQAGGSLRLSCGASGRIISKYAMGWYRQAPGKERELVAAITSRGGNTYYAVSVKGRFTISRDNAKNTVYFQMYSLNPEDTAVYSCNTSPQSRYVFGRVDSWGQGTQVTVSS
- polyreactivity (PSR sort gate): high polyreactivity

Sequence: QVQLVESGGGLVQAGGSHRFSCGASGSTSTYYAMGCYRQAPGTERELVAAISSGGSTNYADSVKGRFTISRDNAKNTVYLKMNSLKPEETAVYYCATDSGDGEGDYWGQGTQVTVSS
- polyreactivity (PSR sort gate): low polyreactivity

Sequence: QVQLVESGGGLFQAGGSLRLSCAASGSTFVYNDMGWYRKATGKERELVAYISTSGGSTYYADSVKGRFTISRDNAKNTVYLQMNSLKPEDTAVYYCNAKRSGPWFLHVPVYYWGQGTQVTVSS
- polyreactivity (PSR sort gate): low polyreactivity

Sequence: QVQLVESGGGLVQAGGSLRLSCAASGFTFPFYTMGWYRQAPGKERELVAAITRSGASTFYADSVKGRFTISRDNAKNTVYLQMNSLKPEDTAVYYCAARRGYAPYEYWGQGTQVTVSS
- polyreactivity (PSR sort gate): high polyreactivity

Sequence: QVQLVESGGGLVQAGGSLRLSCAASGIIFDINAMGWYRQAPGKERELVAAITTSVDSTYYADSVKGRFTISRDNAKNTVYLQMNSLKPEDTAVYYCAAGPGDSGDDYWGQGTQVTVSS
- polyreactivity (PSR sort gate): low polyreactivity

Sequence: QVQLVESGGGLVQAGGSLRLSCAASGSIFRYYTMGWYRQAPGKERELVAAISSRGGSTYYADSVKGRFTISRDNAKNTVYLQMNSLKPEDTAVYYCNVLVKRAYQYTYGVDYWGQGTQVTVSS
- polyreactivity (PSR sort gate): high polyreactivity

Sequence: QVQLVESGGGLVQAGGSLRLSCAASGSIFDRYVMGWYRQAPGKERELVAAITTSGDGTYYADSVKGRFTISRDNAKNTVYLQMNSLKPEDTAVYYCAAVRRSWKYSTSDYWGQGTQVTVSS
- polyreactivity (PSR sort gate): low polyreactivity
